Test results taken from article PMC1931443.

Assays:
[1] = biological target: T1, DMRT5 (mouse) (UniProt A2A9A2); assay: competition; conditions: 40-fold excess unlabeled SELF; EMSA: 10 mM Tris-HCl pH 7.9, 100 mM KCl, 10% glycerol, 5 mM MgCl2, 1 mM spermidine, 0.075% Triton-X-100, 1 mM DTT, 1 ug BSA, 0.1 ug dI-dC, 75 ng plasmid DNA, 0.
T1 sequence: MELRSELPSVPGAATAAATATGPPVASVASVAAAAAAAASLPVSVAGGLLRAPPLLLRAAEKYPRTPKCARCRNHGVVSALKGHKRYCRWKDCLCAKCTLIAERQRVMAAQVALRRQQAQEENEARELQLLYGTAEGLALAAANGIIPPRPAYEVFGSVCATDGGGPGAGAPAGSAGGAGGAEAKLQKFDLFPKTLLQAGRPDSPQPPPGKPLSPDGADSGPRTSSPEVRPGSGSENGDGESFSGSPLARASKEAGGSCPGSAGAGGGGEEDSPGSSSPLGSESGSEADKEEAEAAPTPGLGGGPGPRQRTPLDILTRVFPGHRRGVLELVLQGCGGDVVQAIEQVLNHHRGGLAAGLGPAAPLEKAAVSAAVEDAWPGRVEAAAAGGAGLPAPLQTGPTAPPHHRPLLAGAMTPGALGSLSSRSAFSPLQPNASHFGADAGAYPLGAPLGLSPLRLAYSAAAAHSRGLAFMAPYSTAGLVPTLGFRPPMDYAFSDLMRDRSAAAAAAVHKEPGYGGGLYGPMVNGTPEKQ

[2] = biological target: DMRT1 (mouse) (UniProt Q9QZ59); assay: competition; conditions: 40-fold excess unlabeled SELF; EMSA: 10 mM Tris-HCl pH 7.9, 100 mM KCl, 10% glycerol, 5 mM MgCl2, 1 mM spermidine, 0.075% Triton-X-100, 1 mM DTT, 1 ug BSA, 0.1 ug dI-dC, 75 ng plasmid DNA, 0.
Sequence of DMRT1 (mouse) (Q9QZ59 whole entry): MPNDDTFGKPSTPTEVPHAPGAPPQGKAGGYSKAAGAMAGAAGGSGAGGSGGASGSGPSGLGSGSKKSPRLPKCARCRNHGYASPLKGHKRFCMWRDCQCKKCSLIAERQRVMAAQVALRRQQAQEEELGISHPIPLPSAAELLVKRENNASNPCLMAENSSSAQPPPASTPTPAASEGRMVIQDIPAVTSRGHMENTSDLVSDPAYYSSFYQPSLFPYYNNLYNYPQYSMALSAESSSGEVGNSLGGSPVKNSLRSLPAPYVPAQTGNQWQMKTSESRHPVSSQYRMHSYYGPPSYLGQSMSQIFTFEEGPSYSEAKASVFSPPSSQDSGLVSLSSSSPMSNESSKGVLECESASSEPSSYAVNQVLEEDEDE

TCGAGATTTGATACATTGTTGC / TCGAGCAACAATGTATCAAATC [DMRT1 consensus (1RE, general gel shift)]
binding signal (relative to SELF) [1]: 1 | binding signal (relative to SELF) [2]: 1
